For the assay, the target named is T1, NgR1 (Homo sapiens, UniProt Q9BZR6, S281A).
T1 construct: The cDNAs of NgR1 (NM 023004, Nt. 184-1543); expressed in transfected cells; host or cells: COS7
T1 sequence (Q9BZR6 27-447 S281A): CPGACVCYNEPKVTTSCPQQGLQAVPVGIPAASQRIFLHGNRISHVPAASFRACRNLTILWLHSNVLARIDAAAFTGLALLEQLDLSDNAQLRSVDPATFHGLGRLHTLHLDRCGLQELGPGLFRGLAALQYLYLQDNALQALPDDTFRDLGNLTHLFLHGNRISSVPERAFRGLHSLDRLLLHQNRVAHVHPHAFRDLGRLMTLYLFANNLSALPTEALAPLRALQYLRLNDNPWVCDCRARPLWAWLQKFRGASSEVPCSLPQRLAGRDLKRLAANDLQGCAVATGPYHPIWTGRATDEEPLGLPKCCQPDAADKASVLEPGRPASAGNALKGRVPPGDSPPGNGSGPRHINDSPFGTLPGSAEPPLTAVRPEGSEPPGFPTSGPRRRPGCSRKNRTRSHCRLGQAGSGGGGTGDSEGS
Description: Binding of Nogo-66 fragment (Nogo-GFP) to COS7 cells over-expressing NgR1. Particulars: 281S/A mutant NgR1; pre-treatment 30 min (CK2 with ATP, or NEP1-40). On the procedure: FIG. 3. CK2 phosphorylates NgR1, and inhibits binding of the myelin-associated proteins to NgR1. (A) Myc-tagged wild type, 281S/A or 281S/D mutant NgR1 were over-expressed in COS7 cells. The over-expressed cells were incubated with either the combination of ATP and CK2, or NEP1-40 for 30 min at 37° C. After washing with PBS, cells were incubated with Hisx6-tagged Nogo-GFP for 3 hours at 4° C. The cells were fixed and immunofluorescence was performed with anti-Myc and anti-GFP antibodies. (B) COS7 cells over-expressing Myc-tagged wild type NgR1 were treated as described in (A). Proteins were extracted and the Myc-tagged NgR1 was immunoprecipitated with anti-Myc antibody. Co-precipitated Hisx6-tagged Nogo-GFP was detected by anti-GFP antibody. (C) Cell surface proteins in NgR1-overexpressing COS7 cells were labelled with biotin. The biotinylated proteins were fractionated and analysed by SDS-PAGE. Biotinylated NgR1-Myc was detected with anti-Myc. antibody. (D) COS7 cells over-expressing either wild type NgR1-Myc or 281S/A mutant NgR1-Myc were incubated with ã-^32P-ATP in the presence or absence of CK2. Myc-tagged proteins were immunoprecipitated and analysed with SDS-PAGE. Proteins were blotted onto a PVDF membrane and the membrane was exposed to X-ray film to detect incorporated ^32P. After autoradiography, the membrane was used for immunoblotting with anti-Myc antibody. (E and F) COS7 cells over-expressing Myc-tagged wild type, 281S/A or 281S/D mutant NgR1, were treated as described in (A). After washing with PBS, cells were incubated with either His-tagged OMgp (E) or HA-tagged MAG (F) for 3 hours at 4° C. […]
After treatment with or without CK2, COS7 cells over-expressing wild type or mutant NgR were incubated with Hisx6 tagged Nogo-GFP (10 μg/ml), HA-MAG (50 μg/ml) or Hisx6 tagged OMgp (10 μg/ml) in PBS for 3 hours at 4° C. […] Biotinylated proteins were precipitated with streptavidin beads and were analysed by SDS-PAGE. Each sample fractionated from 5×10^6 cells was analysed by SDS-PAGE. […]

As for “NEP1-40: a competitive inhibitor of Nogo-66 binding to NgR1 (MEDLDQSPLVSSSDSPPRPQPAFKYQFVREPEDEEEEEEE; Nogo-66 residues 1-40; UniProt Q9NQC3 1-40, looked up, fragment) [reference compound]”, the “binding of the Nogo-66 fragment, immunofluorescence” value is “inhibited binding”.

The record behind these values is patent US9089565B2, “Compositions and methods for causing neurite outgrowth” (MEDICAL RESEARCH COUNCIL, priority 2009, dated 2015).
